Details: Escherichia coli (strain K12), whole UniProt chain shown

B1: Divalent-cation tolerance protein CutA wild type, P69488 (protein)
chain: MLDEKSSNTASVVVLCTAPDEATAQDLAAKVLAEKLAACATLIPGATSLYYWEGKLEQEYEVQMILKTTVSHQQALLECLKSHHPYQTPELLVLPVTHGDTDYLSWLNASLR
denaturant midpoint (higher = more stable) (pH 8, 37 °C, GdnHCl, CD, Tris-HCl, reversible: yes): 2.72 M | Tm (pH 9, Thermal, DSC, glycine Buffer, transition: 2, reversible: no): 89.9 °C

From FireProtDB (doi:10.1093/jb/mvq079)
